Non-standard residues stand in square brackets, D forms with d. No end group written: not given here. *: point of attachment. Biotin = O=C1N[C@H]2[C@H](CS[C@H]2CCCCC(=O)*)N1; pS = N[C@@H](COP(=O)(O)O)C(=O)O
B1: Swi6-NLS peptide (unphosphorylated) (peptide)
peptide: Biotin-GGSGGSRELGSPLKK
notes: flexible linker ([Gly-Gly-Ser]2); source: synthetic peptide (NEOBioLab), HPLC purified >95%
B2: Swi6-NLS-P peptide (peptide)
peptide: Biotin-GGSGGSRELG[pS]PLKK
notes: flexible linker ([Gly-Gly-Ser]2); By the printed limits the phosphoserine is Ser160; also called phosphorylated Swi6-NLS peptide; phospho-Swi6 peptide; source: synthetic peptide (NEOBioLab), HPLC purified >95%
B3: CTD peptide (unphosphorylated) (peptide)
peptide: Biotin-GGSGGSYSPTSPSYS
notes: flexible linker ([Gly-Gly-Ser]2); based on the consensus heptapeptide repeat in the carboxy-terminal domain (CTD) of Rpb1, largest subunit of RNA polymerase II; also called unphosphorylated CTD peptide; unphosphorylated CTD control peptide; source: synthetic peptide (NEOBioLab), HPLC purified >95%
B4: Whi5-NES-P peptide (peptide)
peptide: Biotin-GGSGGFL[pS]P[pS]PRLR[pS]PPT
notes: flexible linker; Whi5, S. cerevisiae, residues 152-164 (portion of the nuclear export signal); By the printed limits the phosphoserines are Ser154, Ser156 and Ser161; also called phosphorylated Whi5-NES peptide; Whi5 phospho-peptide; source: synthetic peptide (NEOBioLab), HPLC purified >95%
B5: Recombinant S. cerevisiae Ess1 protein (enzyme, UniProt P22696 1-170, looked up)
chain: MPSDVASRTGLPTPWTVRYSKSKKREYFFNPETKHSQWEEPEGTNKDQLHKHLRDHPVRVRCLHILIKHKDSRRPASHRSENITISKQDATDELKTLITRLDDDSKTNSFEALAKERSDCSSYKRGGDLGWFGRGEMQPSFEDAAFQLKVGEVSDIVESGSGVHVIKRVG
notes: Ess1 peptidyl prolyl cis/trans isomerase, S. cerevisiae; also called purified Ess1 protein; Ess1 prolyl isomerase; source: Escherichia coli, purified as described (Li et al. 2005)
B6: Whi5-NLS peptide (unphosphorylated) (peptide)
peptide: Biotin-GGSGGTPSPPSPPGI
notes: flexible linker; source: synthetic peptide (NEOBioLab), HPLC purified >95%
B7: Whi5-NES peptide (unphosphorylated) (peptide)
peptide: Biotin-GGSGGFLSPSPRLRSPPT
notes: flexible linker; Whi5, S. cerevisiae, residues 152-164 (portion of the nuclear export signal); source: synthetic peptide (NEOBioLab), HPLC purified >95%
B8: Whi5-NLS-P peptide (peptide)
peptide: Biotin-GGSGGTP[pS]PP[pS]PPGI
notes: flexible linker; By the printed limits the phosphoserines are Ser59 and Ser62; also called phosphorylated Whi5-NLS peptide; Whi5 phospho-peptide; source: synthetic peptide (NEOBioLab), HPLC purified >95%
B9: CTD-P peptide (phosphorylated peptide corresponding to the CTD of RNAPII) (peptide)
peptide: Biotin-GGSGGSYSPT[pS]PSYS
notes: flexible linker ([Gly-Gly-Ser]2); based on the consensus heptapeptide repeat in the carboxy-terminal domain (CTD) of Rpb1, largest subunit of RNA polymerase II; The phosphoserine is Ser5 of the heptad YSPTSPS; also called phospho-CTD peptide; phosphorylated CTD peptide; source: synthetic peptide (NEOBioLab), HPLC purified >95%

Experiments:
Test in all cases: BLI; Octet RED, 24°; N-terminally biotinylated peptides immobilised on streptavidin biosensors; Ess1 in solution (3, 10, 30 μM); 20 mM Tris-HCl pH 8.0, 1 mg/mL BSA; no-peptide sensor subtracted; apparent dissociation constants (Kapp) from kinetic and equilibrium data, considering only the predominant faster-dissociating signal; for unphosphorylated peptides Kapp estimated from the signal at 30 μM Ess1
Conditions in all cases: both partners purified
[1] = target: B5
[2] = target: B5; remark: listed apart in the source
Whi5-NES-P peptide = target: B4
[3] = target: B9
Swi6-NLS-P peptide = target: B2
Whi5-NLS-P peptide = target: B8

How did the Kd [1] turn out when B1 was run?
The Kd was greater than 100 µM.

What does the source list for B2?
koff [2]: 0.254 s⁻¹; Kd [1]: 8.67 µM

B3 was tested. Which Kd [1] did it give?
The Kd was greater than 300 µM.

For B4, which Kd [1] is on record?
Its Kd is 2.19 µM.

B5 was tested. Which “KappEq (equilibrium)” value (Whi5-NES-P peptide) did it give?
The value was 1.13 ± 0.18 µM.

What about the “KappK (kinetic)” value (Whi5-NES-P peptide) of the same binder?
Its value is 3.25 ± 0.7 µM.

What about the “KappEq (equilibrium)” value [3] of the same binder?
The value was 1.65 ± 0.06 µM.

And the “KappK (kinetic)” value [3]?
The value was 2.58 ± 0.65 µM.

What about the “KappEq (equilibrium)” value (Swi6-NLS-P peptide) of the same binder?
The value was 10.1 ± 5.1 µM.

And the “KappK (kinetic)” value (Swi6-NLS-P peptide)?
Its value is 7.25 ± 4.63 µM.

What about the “KappEq (equilibrium)” value (Whi5-NLS-P peptide) of the same binder?
Its value is 0.48 ± 0.46 µM.

And the “KappK (kinetic)” value (Whi5-NLS-P peptide)?
The value was 2.87 ± 0.82 µM.

How did the Kd [1] turn out when B6 was run?
Its Kd is greater than 25 µM.

For B7, which Kd [1] is on record?
The Kd was greater than 1500 µM.

With B8 as the binder, how does the Kd [1] read?
Its Kd is 1.67 µM.

With B9 as the binder, how does the Kd [1] read?
Its Kd is 2.12 µM.

Source: paper PMC3962490, “The Yeast Ess1 Prolyl Isomerase Controls Swi6 and Whi5 Nuclear Localization” (G3: Genes|Genomes|Genetics, 2014)
